Measured values published in paper PMC8016135, “Observation of arenavirus nucleoprotein heptamer assembly” (FEBS Open Bio, 2021).

Biological target: the molecule itself
Assay: negative stain transmission electron microscopy

B1: Mopeia virus nucleoprotein (natural protein, UniProt P19239 1-570, looked up)
chain: MSNSKEVKSFLWTQSLRRELSGYCSNIKIQVIKDAQALLHGLDFSEVANVQRLMRKEKRDDSDLKRLRDLNQAVNNLVELKSVQQKNVLRVGTLTSDDLLVLAADLDRLKAKVIRGERPLAAGVYMGNLTAQQLEQRRVLLQMVGMGGGFRAGNTLGDGIVRVWDVRNPELLNNQFGTMPSLTIACMCKQGQADLNDVIQSLSDLGLVYTAKYPNMSDLDKLSQTHPILGIIEPKKSAINISGYNFSLSAAVKAGACLIDGGNMLETIKVTKSNLEGILKAALKVKRSLGMFVSDTPGERNPYENLLYKLCLSGEGWPYIASRTSIVGRAWDNTTVDLSGDVQQNAKPDKGNSNRLAQAQGMPAGLTYSQTMELKDSMLQLDPNAKTWIDIEGRPEDPVEIAIYQPNNGQYIHFYREPTDIKQFKQDSKHSHGIDIQDLFSVQPGLTSAVIESLPKNMVLSCQGADDIRKLLDSQNRRDIKLIDVSMQKDDARKFEDKIWDEYKHLCRMHTGIVTQKKKRGGKEEVTPHCALLDCLMFEAAVIGSPQIPTPRPVLSRDLVFRTGPPRVVL
notes: Nucleoprotein (NP, ~63 kDa) of Mopeia virus (MOPV), full length; also called MOPV-NP; MOPV NP; not shown: thioredoxin, N-terminal, cleaved; His6, N-terminal, cleaved
stoichiometry N: 7
